Assay [1] has as its target IGF-II (insulin-like growth factor II) (UniProt P01344). Nature of the assay: method not stated in the legend (presumably BIAcore).
The target is the same in assay [2]. Nature of the assay: SPR (BIAcore), IGF-II amine-coupled to CM5 chip; ratio against hIGFBP-2. Background: SPR reads the build-up and loss of mass on a sensor chip optically.
Assay [3] addresses IGF-I (insulin-like growth factor I) (UniProt P05019). The assay is described as follows: method not stated in the legend (presumably BIAcore).
In assay [4] the target is IGF-II (insulin-like growth factor II) (UniProt P01344). Nature of the assay: SPR (BIAcore), IGF-II amine-coupled to CM5 chip, IGFBP-2 as analyte, Langmuir 1:1 fit.
Chain of IGF-II (insulin-like growth factor II) (P01344 25-91 limits assumed): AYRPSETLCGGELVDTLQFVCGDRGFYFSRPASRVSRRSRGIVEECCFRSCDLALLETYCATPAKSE
Assay [5] has as its target IGF-I (insulin-like growth factor I) (UniProt P05019). Nature of the assay: SPR (BIAcore) on immobilised IGF-I; text summing up Table 2.
For assay [6] the target is unchanged. Nature of the assay: SPR (BIAcore), IGF-I amine-coupled to CM5 chip; ratio against hIGFBP-2.
Assay [7] concerns the target IGF-II (insulin-like growth factor II) (UniProt P01344). Nature of the assay: SPR (BIAcore) on immobilised IGF-II; text summing up Table 3.
For assay [8], the target named is IGF-I (insulin-like growth factor I) (UniProt P05019). The assay is described as follows: SPR (BIAcore), IGF-I amine-coupled to CM5 chip, IGFBP-2 as analyte, Langmuir 1:1 fit.
Chain of IGF-I (insulin-like growth factor I) (P05019 49-118 limits assumed): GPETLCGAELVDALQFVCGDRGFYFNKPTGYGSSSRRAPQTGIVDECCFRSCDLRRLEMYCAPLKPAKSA

The values that follow come from patent US20060153853A1.

Turning to “Des (114-170) K180A K181A hIGFBP-2 (from UniProt P18065 36-113; P18065 207-325)”, in assay [1], the fold lower affinity (reference not named, presumably native IGFBP-2) was 2 fold.

The Kd is the concentration at which binding is half-saturated. A lower Kd goes with a tighter complex. What is called koff is the rate constant with which the complex falls apart. A higher koff goes with a short-lived complex. As a reminder, the kon is the rate constant with which the complex forms. “Des(114-170)His hIGFBP-2 (from UniProt P18065 36-113; P18065 207-325)”: the Rel. KD (KD of hIGFBP-2/KD of hIGFBP-2 mutant) worked out at 0.51 in assay [2] and 0.26 in assay [6]. The substance further gave a fold lower affinity (reference not named, presumably native IGFBP-2) in assay [3] of 2 fold. The values for the Kd in assay [4] and in assay [8] were 1.14 nM and 3.63 nM, respectively. In addition, the values for the koff in assay [4] and in assay [8] were 0.00013 s⁻¹ and 0.000425 s⁻¹, respectively. Moreover, the kon came to 114000 M⁻¹ s⁻¹ in assay [4] and 117000 M⁻¹ s⁻¹ in assay [8]. Further, the fold decrease in affinity against native hIGFBP-2 in assay [5] turned out to be 5 fold; in assay [7] it was 2 fold.
